Literature values as cited in US20260159592A1, “COMPOSITIONS AND METHODS FOR TARGETING AND KILLING ALPHA-V BETA-3 -POSITIVE CANCER STEM CELLS (CSCS) AND TREATING DRUG RESISTANT AND METASTATIC CANCERS” (The Regents of the University of California, priority 2019, published 2026).

How the values were obtained:
M21 cells = settings: ligands such as vitronectin, fibrinogen and von Willebrand factor; Cheresh and Spiro
αvβ3 [1] = biological target: T1, αvβ3 (Homo sapiens, UniProt P05106+P06756); settings: Brooks et al. Cell 79:1157-1164 (1994)
T1 sequence (P06756 31-889 limits assumed): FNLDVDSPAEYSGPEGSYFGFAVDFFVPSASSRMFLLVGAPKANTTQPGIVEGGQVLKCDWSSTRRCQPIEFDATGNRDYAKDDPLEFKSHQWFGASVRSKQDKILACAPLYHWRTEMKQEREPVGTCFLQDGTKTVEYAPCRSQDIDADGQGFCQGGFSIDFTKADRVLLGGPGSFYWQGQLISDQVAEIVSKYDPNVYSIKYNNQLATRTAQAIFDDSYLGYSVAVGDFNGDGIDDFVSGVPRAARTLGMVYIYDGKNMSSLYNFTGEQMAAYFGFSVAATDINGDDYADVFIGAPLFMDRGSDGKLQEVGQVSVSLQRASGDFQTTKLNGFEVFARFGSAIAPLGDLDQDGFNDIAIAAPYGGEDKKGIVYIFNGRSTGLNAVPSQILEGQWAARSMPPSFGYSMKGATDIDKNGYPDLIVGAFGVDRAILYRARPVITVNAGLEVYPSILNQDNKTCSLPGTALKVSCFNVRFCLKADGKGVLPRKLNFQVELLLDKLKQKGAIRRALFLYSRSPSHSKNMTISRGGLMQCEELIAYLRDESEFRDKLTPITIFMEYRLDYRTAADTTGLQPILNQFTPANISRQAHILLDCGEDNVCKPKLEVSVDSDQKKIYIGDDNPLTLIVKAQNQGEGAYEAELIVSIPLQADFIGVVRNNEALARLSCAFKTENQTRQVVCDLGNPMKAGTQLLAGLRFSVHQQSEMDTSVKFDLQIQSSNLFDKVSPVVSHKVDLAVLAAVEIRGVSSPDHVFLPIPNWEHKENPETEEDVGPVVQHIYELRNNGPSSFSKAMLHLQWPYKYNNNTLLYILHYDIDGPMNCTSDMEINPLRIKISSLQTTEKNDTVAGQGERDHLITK
T1 sequence (P06756 891-1048 limits assumed): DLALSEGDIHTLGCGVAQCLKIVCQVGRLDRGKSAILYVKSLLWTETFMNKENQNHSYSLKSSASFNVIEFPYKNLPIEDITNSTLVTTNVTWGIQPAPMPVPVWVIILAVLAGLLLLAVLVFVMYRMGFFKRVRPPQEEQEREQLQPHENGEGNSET
T1 sequence (P05106 27-788): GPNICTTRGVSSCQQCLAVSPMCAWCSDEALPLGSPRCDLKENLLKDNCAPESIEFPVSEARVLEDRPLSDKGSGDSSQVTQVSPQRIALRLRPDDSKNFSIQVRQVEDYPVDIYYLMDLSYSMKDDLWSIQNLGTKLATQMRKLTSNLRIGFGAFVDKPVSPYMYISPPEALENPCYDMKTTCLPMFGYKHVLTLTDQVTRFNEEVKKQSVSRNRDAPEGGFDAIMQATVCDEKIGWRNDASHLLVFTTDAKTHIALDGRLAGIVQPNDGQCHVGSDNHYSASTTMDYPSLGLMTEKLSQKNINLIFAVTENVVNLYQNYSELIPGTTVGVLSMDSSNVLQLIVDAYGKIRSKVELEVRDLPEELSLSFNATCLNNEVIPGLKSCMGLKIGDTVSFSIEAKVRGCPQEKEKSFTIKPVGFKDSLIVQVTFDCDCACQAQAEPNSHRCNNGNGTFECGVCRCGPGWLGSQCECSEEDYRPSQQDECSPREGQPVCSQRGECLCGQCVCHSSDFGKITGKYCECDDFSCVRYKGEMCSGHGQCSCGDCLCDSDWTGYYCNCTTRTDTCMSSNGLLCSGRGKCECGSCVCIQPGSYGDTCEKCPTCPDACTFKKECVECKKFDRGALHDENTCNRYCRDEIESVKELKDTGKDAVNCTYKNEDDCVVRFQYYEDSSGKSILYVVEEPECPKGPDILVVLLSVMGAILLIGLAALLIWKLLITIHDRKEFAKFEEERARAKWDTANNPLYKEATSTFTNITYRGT

αvβ3 [2] = biological target: T1, αvβ3; settings: Clark et al., Am. J. Pathology 148:1407-1421 (1996)
αvβ3 [3] = biological target: T1, αvβ3; settings: Choi et al. (1994); Jones et al. (1996)

B1: LM609: murine monoclonal antibody specific for the integrin αvβ3 (antibody, V domains shown)
VH: EVQLVESGGGLVKPGRSLRLSCAASGFAFSSYDMSWVRQIPEKRLEWVAKVSSGGGSTYYLDTVQGRFTISRDNAKNTLYLQMSSLNSEDTAMYYCARHNYGSFAYWGQGTLVTVSA
VL: DIVLTQSPATLSVTPGDSVSLSCQASQSISNHLHWYQQKSHESPRLLIKYRSQSISGIPSRFSGSGSGTDFALSINSVETEDFGMYFCQQSGSWPHTFGGGTKLEIK
**Q.** Which “attachment of M21 cells to αvβ ligands” value (M21 cells) does the source give for B1 here?
**A.** The value was “inhibits”.

**Q.** What about the tumor induced angiogenesis (αvβ3 [1]) of the same molecule?
**A.** Its tumor induced angiogenesis is “inhibitor”.

**Q.** And the “granulation tissue development in cutaneous wound” value (αvβ3 [2])?
**A.** The value was “inhibitor”.

**Q.** And the “smooth muscle cell migration such as that occurring during restenosis” value (αvβ3 [3])?
**A.** Its value is “inhibitor”.
